Results reported in paper PMC3522258.

T1: RIG-I (ΔCARDs) (human, UniProt O95786 229-925)
T1 sequence: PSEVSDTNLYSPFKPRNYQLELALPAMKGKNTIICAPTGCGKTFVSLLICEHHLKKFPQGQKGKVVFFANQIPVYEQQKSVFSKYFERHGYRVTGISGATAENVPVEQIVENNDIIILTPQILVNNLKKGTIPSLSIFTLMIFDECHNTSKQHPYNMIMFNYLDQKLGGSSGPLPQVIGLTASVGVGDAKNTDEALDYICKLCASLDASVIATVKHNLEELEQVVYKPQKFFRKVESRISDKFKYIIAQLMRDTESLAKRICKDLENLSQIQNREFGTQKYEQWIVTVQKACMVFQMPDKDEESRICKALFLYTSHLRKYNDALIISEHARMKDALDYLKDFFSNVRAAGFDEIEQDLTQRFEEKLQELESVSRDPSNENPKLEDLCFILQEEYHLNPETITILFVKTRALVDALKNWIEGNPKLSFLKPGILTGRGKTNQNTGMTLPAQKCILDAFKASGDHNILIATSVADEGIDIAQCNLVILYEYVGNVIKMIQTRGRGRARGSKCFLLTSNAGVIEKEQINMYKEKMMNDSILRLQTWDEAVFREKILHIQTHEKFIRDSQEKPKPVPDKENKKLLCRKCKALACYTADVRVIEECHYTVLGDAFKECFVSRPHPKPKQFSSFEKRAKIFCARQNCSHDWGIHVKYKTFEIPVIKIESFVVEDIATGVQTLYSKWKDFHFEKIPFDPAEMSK

T2: full-length RIG-I (human, UniProt O95786 1-925)
T2 sequence: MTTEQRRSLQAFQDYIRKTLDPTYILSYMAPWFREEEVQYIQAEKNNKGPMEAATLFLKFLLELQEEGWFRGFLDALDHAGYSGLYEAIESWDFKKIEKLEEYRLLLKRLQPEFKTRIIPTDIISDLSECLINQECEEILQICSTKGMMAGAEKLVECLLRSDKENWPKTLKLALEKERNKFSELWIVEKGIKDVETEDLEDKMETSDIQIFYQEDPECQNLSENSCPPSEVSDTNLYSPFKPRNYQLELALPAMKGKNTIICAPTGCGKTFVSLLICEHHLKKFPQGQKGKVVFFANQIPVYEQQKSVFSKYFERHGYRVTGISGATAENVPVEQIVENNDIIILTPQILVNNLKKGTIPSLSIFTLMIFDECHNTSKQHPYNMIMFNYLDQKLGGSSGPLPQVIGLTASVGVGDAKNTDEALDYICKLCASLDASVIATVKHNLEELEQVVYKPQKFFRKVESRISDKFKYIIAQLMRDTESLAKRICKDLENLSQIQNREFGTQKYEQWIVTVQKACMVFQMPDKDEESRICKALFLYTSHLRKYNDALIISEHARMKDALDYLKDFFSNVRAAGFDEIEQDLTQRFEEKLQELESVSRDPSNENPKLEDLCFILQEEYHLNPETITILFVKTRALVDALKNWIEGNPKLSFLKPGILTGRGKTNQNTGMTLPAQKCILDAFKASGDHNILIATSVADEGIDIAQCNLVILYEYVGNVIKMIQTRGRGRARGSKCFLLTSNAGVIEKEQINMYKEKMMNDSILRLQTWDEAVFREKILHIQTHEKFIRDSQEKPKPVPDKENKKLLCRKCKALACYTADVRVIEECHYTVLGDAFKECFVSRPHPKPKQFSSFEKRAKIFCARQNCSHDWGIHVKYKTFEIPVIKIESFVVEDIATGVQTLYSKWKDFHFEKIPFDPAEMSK

T3: CTD (human, UniProt O95786 792-925)
T3 sequence: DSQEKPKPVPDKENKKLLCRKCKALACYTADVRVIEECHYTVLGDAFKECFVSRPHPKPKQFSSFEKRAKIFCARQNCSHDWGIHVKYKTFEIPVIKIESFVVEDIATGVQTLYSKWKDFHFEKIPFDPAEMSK

T4: HD (helicase domain) (human, UniProt O95786 229-793)
T4 sequence: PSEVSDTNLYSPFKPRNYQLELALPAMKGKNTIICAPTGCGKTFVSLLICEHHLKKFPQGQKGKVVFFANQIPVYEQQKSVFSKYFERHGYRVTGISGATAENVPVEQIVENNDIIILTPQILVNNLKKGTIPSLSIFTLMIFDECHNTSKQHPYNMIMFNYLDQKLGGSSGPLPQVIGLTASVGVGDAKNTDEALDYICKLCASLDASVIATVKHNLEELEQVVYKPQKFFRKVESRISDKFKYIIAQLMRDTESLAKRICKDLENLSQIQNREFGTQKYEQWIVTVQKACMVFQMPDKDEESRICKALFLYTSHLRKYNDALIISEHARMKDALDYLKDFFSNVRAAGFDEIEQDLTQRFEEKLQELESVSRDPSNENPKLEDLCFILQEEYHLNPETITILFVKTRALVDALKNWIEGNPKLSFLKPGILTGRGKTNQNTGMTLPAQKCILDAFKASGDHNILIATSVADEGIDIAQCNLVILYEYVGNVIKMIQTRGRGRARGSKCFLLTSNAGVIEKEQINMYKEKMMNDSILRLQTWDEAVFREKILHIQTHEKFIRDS


Assays:
RIG-I (ΔCARDs) [1] = target: T1, RIG-I (ΔCARDs); assay: EMSA
full-length RIG-I = target: T2, full-length RIG-I; assay: EMSA
CTD = target: T3, CTD; assay: EMSA
HD (helicase domain) = target: T4, HD (helicase domain); assay: EMSA
RIG-I (ΔCARDs) [2] = target: T1, RIG-I (ΔCARDs); assay: competition

| Binder | Kd (RIG-I (ΔCARDs) [1]) [nM] | Kd (full-length RIG-I) [nM] | Kd (CTD) [nM] | Kd (HD (helicase domain)) [nM] | Ki (RIG-I (ΔCARDs) [2]) [nM] |
| --- | --- | --- | --- | --- | --- |
| 5'-ppp 14 dsRNA (dsRNA, 5'-triphosphate on top strand) RNA 1: ACCUCCCACCCCCG RNA 2: CGGGGGUGGGAGGU | 0.041 ± 0.002 | 0.159 ± 0.02 | 0.5 ± 0.06 | 760 ± 20 |  |
| 5'-OH 14 dsRNA, unlabeled competitor (dsRNA, 5'-OH) RNA 1: ACCUCCCACCCCCG RNA 2: CGGGGGUGGGAGGU |  |  |  |  | 13 |
| 5'-OH 14 dsRNA (dsRNA, 5'-OH on top strand) RNA 1: ACCUCCCACCCCCG RNA 2: CGGGGGUGGGAGGU | 3.6 ± 0.9 | 20 ± 3 | 5900 ± 750 |  |  |
